As a reminder, the stoichiometry N is a count of units in the complex or per binding partner.

The results in this text go back to article PMC3805332 (ACS Chemical Biology, 2013).

Values joined by “and” are separate entries in the source; they are usually repeats but may differ in a detail not shown here. Equal entries are not always repeated.

Data set [1] has as its target T1, M. smegmatis TreS (recombinant) (M. smegmatis, UniProt A0R6E0 1-593).
T1 sequence (looked up): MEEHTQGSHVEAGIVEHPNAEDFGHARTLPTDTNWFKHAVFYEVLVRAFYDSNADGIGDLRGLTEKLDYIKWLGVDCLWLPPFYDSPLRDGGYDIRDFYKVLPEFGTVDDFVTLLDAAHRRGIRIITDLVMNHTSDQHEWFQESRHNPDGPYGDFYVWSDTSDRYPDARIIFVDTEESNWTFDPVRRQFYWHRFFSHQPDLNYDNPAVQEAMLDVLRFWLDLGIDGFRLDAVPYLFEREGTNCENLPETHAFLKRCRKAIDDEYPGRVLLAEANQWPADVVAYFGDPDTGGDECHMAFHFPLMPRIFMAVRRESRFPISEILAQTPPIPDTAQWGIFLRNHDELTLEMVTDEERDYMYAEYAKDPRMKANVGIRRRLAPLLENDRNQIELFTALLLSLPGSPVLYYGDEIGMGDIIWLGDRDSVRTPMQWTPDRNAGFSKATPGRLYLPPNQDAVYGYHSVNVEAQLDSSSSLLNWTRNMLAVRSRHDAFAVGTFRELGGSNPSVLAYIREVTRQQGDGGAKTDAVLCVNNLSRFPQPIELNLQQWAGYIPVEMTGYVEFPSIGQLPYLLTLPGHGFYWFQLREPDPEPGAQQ
Kind of data set: SEC; M. smegmatis Pep2-K145A with M. smegmatis TreS (Figure S6B); conditions not given. The conditions noted are these: both partners purified.

Data set [2] has as its target M. tuberculosis maltokinase Pep2 (M. tuberculosis H37Rv, UniProt O07177 1-455). Kind of data set: SEC. The conditions noted are these: both partners purified.
The data set “AUC” deals with the molecule itself. Kind of data set: AUC.

B1: M. smegmatis Pep2-K145A (enzyme)
chain: not shown
Take B1: the binding result in data set [1] was “binds”.

B2: M. tuberculosis trehalose synthase TreS (enzyme)
chain: MNEAEHSVEHPPVQGSHVEGGVVEHPDAKDFGSAAALPADPTWFKHAVFYEVLVRAFFDASADGSGDLRGLIDRLDYLQWLGIDCIWLPPFYDSPLRDGGYDIRDFYKVLPEFGTVDDFVALVDAAHRRGIRIITDLVMNHTSESHPWFQESRRDPDGPYGDYYVWSDTSERYTDARIIFVDTEESNWSFDPVRRQFYWHRFFSHQPDLNYDNPAVQEAMIDVIRFWLGLGIDGFRLDAVPYLFEREGTNCENLPETHAFLKRVRKVVDDEFPGRVLLAEANQWPGDVVEYFGDPNTGGDECHMAFHFPLMPRIFMAVRRESRFPISEIIAQTPPIPDMAQWGIFLRNHDELTLEMVTDEERDYMYAEYAKDPRMKANVGIRRRLAPLLDNDRNQIELFTALLLSLPGSPVLYYGDEIGMGDVIWLGDRDGVRIPMQWTPDRNAGFSTANPGRLYLPPSQDPVYGYQAVNVEAQRDTSTSLLNFTRTMLAVRRRHPAFAVGAFQELGGSNPSVLAYVRQVAGDDGDTVLCVNNLSRFPQPIELDLQQWTNYTPVELTGHVEFPRIGQVPYLLTLPGHGFYWFQLTTHEVGAPPTCGGERRL
For B2, the binding result in data set [2] was “binds”. Also, the “stoichiometry N” value in “AUC” was 4 and 8.
